# US10723771B2, “Modified microorganisms expressing SagA as anti-infective agents, probiotics and food components” (priority 2015, dated 2020)
# “Also recorded” adds a separate entry of the source.
# B1: SagA: E. faecium secreted antigen A, NlpC/p60 peptidoglycan hydrolase, SEQ ID NO:1, purified His6-tagged (protein, listed as Enterococcus faecium)
# chain: MKKSLISAVMVCSMTLTAVASPIAAAADDFDSQIQQQDQKIADLKNQQADAQSQIDALESQVSEINTQAQDLLAKQDTLRQESAQLVKDIADLQERIEKREDTIQKQAREAQVSNTSSNYIDAVLNADSLADAIGRVQAMTTMVKANNDLMEQQKQDKKAVEDKKAENDAKLKELAENQAALESQKGDLLSKQADLNVLKTSLAAEQATAEDKKADLNRQKAEAEAEQARIREQQRLAEQARQQAAQEKAEKEAREQAEAEAQATQASSTAQSSASEESSAAQSSTTEESSSAAQSSTTEESTTAPESSTTEESTTAPESSTTEESTTVPESSTTEESTTVPESSTTEESTTVPESSTTEESTTVPETSTEESTTPAPTTPSTDQSVDPGNSTGSNATNNTTNTTPTPTPSGSVNGAAIVAEAYKYIGTPYVWGGKDPSGFDCSGFTRYVYLQVTGRDIGGWTVPQESAGTKISVSQAKAGDLLFWGSPGGTYHVAIALGGGQYIHAPQPGESVKVGSVQWFAPDFAVSM
# modifications: His6 tag
# How the values were obtained:
# [1] = system: S. Typhimurium; assay: Liquid-treatment pulsed infection assay: C. elegans treated in liquid wells, then infected with S. Typhimurium, survival scored; type: in vivo; settings: for Inhibition of S. Typhimurium pathogenesis (C. elegans survival): liquid wells 2 hours before infection, protein 10-20 μg/mL, defined fragments 50 μM, digests 100 μL; for Inhibition of S. Typhimurium pathogenesis (survival) in tol-1(nr2033) animals: tol-1(nr2033) C. elegans, liquid treatment
# From the text: C. elegans infection assays: For each condition, 3 plates of 30 worms each (total 90 worms) were scored, unless otherwise noted. Mean percent survival and standard deviation of the triplicate plates for a representative experiment are shown for extended data figures. Mean percent survival and statistical comparisons by log rank test after Bonferroni correction for multiple comparisons using OASIS software are shown in the figures. E. faecium refers to strain Com15 unless otherwise noted in the figure legends. Worms were handled using a Leica M60 microscope and imaged using a Leica IC80 HD camera.
# Liquid-treatment pulsed infection assay: Synchronized young adult worms were transferred to 96-well plate wells containing 32% BHI media, culture supernatant, or live cultures. For protein treatments, 10-20 μg/mL of protein in PBS was included in each well. For treatment with peptidoglycan digests, 100 μL of each digest was added to each well. For treatment with defined peptidoglycan fragments, 50 μM of each fragment in a mixture of PBS and water was included in each well. MDP, GlcNAc, and MurNAc were purchased from Sigma-Aldrich. MurNAc-L-Ala was synthesized as described below in Scheme 51. After 2 hours, worms were washed and transferred to lawns of IR715 grown on BHI plates for 1 day. Then, worms were washed and transferred to lawns of OP50 grown on NGM plates (Day 0). Worms were maintained on OP50-NGM plates and survival was scored.
# Treatment of culture supernatants: Proteinase K treatment: Culture supernatant or media was digested with 0.1 mg/mL of proteinase K in the presence of 1 mM CaCl2 for 2 hours at 37° C. Then, 1 mM EGTA was added, and digestions were used in the liquid-treatment pulsed infection assay.
# Trichloroacetic acid precipitation: Culture supernatant or media was precipitated with TCA (final concentration of 10%) overnight at 4° C. Precipitated proteins were pelleted and rinsed 2 times in acetone, then air-dried and resuspended in BHI media before use in the liquid-treatment pulsed infection assay. 10-kDa MWCO column filtration: E. faecium culture supernatant or media was filtered through 10-kDa MWCO columns (Vivaspin GE Healthcare), and the flow-thru was used in the liquid-treatment pulsed infection assay.
# 5-kDa MWCO column filtration of E. coli culture supernatants: E. coli BL21-RIL(DE3) expressing SagA-His or AS-His were induced in BHI media instead of LB as described above. Portions of the culture supernatants were filtered through 5-kDa MWCO columns (Vivaspin GE Healthcare), and the unfiltered supernatants, column concentrate, and column flow-thru were used in the liquid-treatment pulsed infection assay.
# Peptidoglycan Digests: 100 μg of E. coli peptidoglycan (Invivogen) was digested with 20 μg lysozyme (Sigma) and 20 μg of SagA-His or AS-His overnight in a mixture of PBS and water at 37° C. Digests were then filtered through 5-kDa MWCO columns (Vivaspin GE Healthcare), and the flow-thru was used in the liquid-treatment pulsed infection assay.
# [2] = system: S. Typhimurium; assay: Colonization and S. Typhimurium infection of mice (weight loss, fecal burden, survival); type: in vivo; settings: MurNAc alone
# Experimental: Specific pathogen-free (SPF) mice were gavaged with either a single dose of 20 mg streptomycin or a daily dose of AMNV antibiotic cocktail (4 mg ampicillin, 2 mg metronidazole, 4 mg neomycin, and 2 mg vancomycin) for 7-14 days as indicated in the figure legends. Bacterial cultures were washed and resuspended in sterile PBS at 10^9/mL for E. faecium, E. faecalis, and L. plantarum or at 10^7/mL (SPF) or 10^3/mL (GF) for S. Typhimurium. Mice were colonized by gavage with 100 uL of the indicated bacterial suspension 4 hours before infection (for streptomycin-treated mice) or 2-7 days before infection (for AMNV and GF gnotobiotic mono-colonized mice). Colonization was followed by infection with S. Typhimurium by oral gavage at the doses indicated above and in the figure legends. Weight loss was monitored from just before infection, and mice were euthanized when they reached 80% baseline weight or when they appeared hunched or moribund, whichever occurred first. Death was not used as an end-point. Colony-forming units (CFU) in the feces were determined by plating 5 serial dilutions of feces suspended in sterile PBS on selective agars: Salmonella Shigella Agar (BD 211597) for S. Typhimurium, Enterococcosel Agar (BD 212205) for E. faecium and E. facealis, and MRS Agar with 8 ug/mL chloramphenicol for L. plantarum-vector and -SagA. Resulting quantities were normalized to feces weight.
# [3] = ANTS labeling assay of peptidoglycan digests; type: biochemical; settings: purified E. coli peptidoglycan digested with lysozyme and the protein
# Experimental: E. coli supernatants were prepared by inoculating cultures 1:50 with an overnight culture of E. coli BL21-RIL(DE3) expressing SagA-His6 or AS-His6. Cultures were grown for 2 hours, then induced with 1 mM IPTG, and grown for an additional 2 hours. Enterococcus supernatants were prepared by growing cultures overnight. Cultures were pelleted, and supernatant was filtered through 10 kDa MWCO columns (Millipore Microcon). For peptidoglycan digests, 100 μg of E. coli peptidoglycan was digested with 20 μg lysozyme and 20 μg of SagA-His or AS-His overnight in a mixture of PBS and water at 37° C. Digests were filtered through 10 kDa MWCO columns. Culture supernatants, peptidoglycan digests, and defined peptidoglycan fragments were dried by speed-vac before ANTS labeling. ANTS labeling was using established techniques. 10 μl of ANTS reaction mix was added to each tube of dried material (1:1 mixture of 0.2 M ANTS (in 3:17 acetic acid:water): 1 M NaCNBH3 (in DMSO)). Reactions were incubated overnight at 37° C. 0.5-3.5 μL of the ANTS labeled mixtures were mixed 1:1 with 40% glycerol and samples were separated by native PAGE on a hand-cast 37-40% Tris-glycine acrylamide gel (19:1 polyacrylamide:bisacrylamide, with a 20% acrylamide stack) at 150 V for ˜3 hours or 80 V for ˜6 hours. Empty lanes adjacent to sample lanes were loaded with samples of ANTS labeled Ala-D-γ-Glu-Lys-D-Ala-D-Ala (Sigma). […]
# [4] = system: E. coli BL21-RIL(DE3); assay: Growth (OD600) of E. coli expressing SagA, AS or SagA-SS; type: cell-based; settings: IPTG-induced expression in E. coli BL21-RIL(DE3)
# Experimental: Bacterial growth curves: Growth of E. coli expressing SagA, AS, or SagA-SS: Cultures were grown as described for protein purification, except that OD600 was monitored at given time points using a Spectromax M2e spectrophotometer.
# [5] = system: S. Typhimurium; assay: Worm CFU measurements, S. Typhimurium; type: in vivo, C. elegans; settings: protein-treated infected animals
# Experimental: Worm CFU measurements: Protocol for CFU measurements was adapted from previous protocol. Briefly, 5-20 worms were rinsed in drops of S buffer, and allowed to crawl free of bacteria on a sterile plate. These worms were then mechanically lysed in PBS using microtubes and pestles (Kimble-Chase). Serial dilutions of worm homogenate were plated on Salmonella-Shigella agar (BD BBL) or Enterococcosel (BD BBL) agar plates, and plates were incubated at 37° C. overnight.
# [6] = system: S. Typhimurium; assay: Growth of S. Typhimurium in the presence of SagA; type: cell-based; settings: LB media + 10 μg/ml protein
# Experimental: (§1) Growth of E. coli and S. Typhimurium in the presence of SagA: LB media was inoculated with overnight cultures 1:100. Protein was added at 10 μg/mL and volumes were normalized across all conditions with PBS. OD600 was measured at given time points. Growth of OG1RF-sagA: BHI media was inoculated with overnight cultures 1:100. Chloramphenicol was added at 10 μg/mL as indicated. OD600 was measured at given time points.
# [7] = system: SPI-1 type III protein secretion in S. Typhimurium; assay: Salmonella protein secretion assay; type: cell-based; settings: LB + 10 μg/ml protein
# Experimental: Salmonella protein secretion assay: For each condition, 2 mL of LB was inoculated with overnight cultures 1:30. Protein was added to media at 10 μg/mL and volumes were normalized across all conditions with PBS. Cultures were grown for 4 hours, shaking at 37° C., the pelleted at 7000 g for 5 minutes. 1 mL of culture supernatant was precipitated with trichloro acetic acid (TCA) at a final concentration of 10% overnight at 4° C. Precipitated proteins were pelleted at 20,800 g for 30 minutes, rinsed 2 times in acetone, then air-dried. Proteins were then separated by SDS-PAGE and visualized by Coomassie staining.
# [8] = system: E. coli BL21-RIL(DE3); assay: Growth of E. coli in the presence of SagA; type: cell-based; settings: LB media + 10 μg/ml protein
# Experimental: as §1
molecule,measurement,setting,value
"CC(=O)N[C@H]1C(O)O[C@H](CO)[C@@H](O)[C@@H]1O (some centres unmarked) [GlcNAc, N-acetylglucosamine]",Inhibition of S. Typhimurium pathogenesis (C. elegans survival),[1],not protective; also recorded: did not inhibit S. Typhimurium pathogenesis
"CC(=O)N[C@H]1C(O)O[C@H](CO)[C@@H](O)[C@@H]1O[C@H](C)C(=O)N[C@@H](C)C(=O)N[C@H](CCC(=O)O)C(=O)O (stereo partly drawn) [MDP, MurNAc-L-Ala-D-Glu]",Inhibition of S. Typhimurium pathogenesis (C. elegans survival),[1],not protective; also recorded: did not inhibit S. Typhimurium pathogenesis
CC(=O)N[C@H]1C(O)O[C@H](CO)[C@@H](O)[C@@H]1O[C@H](C)C(=O)O (some centres unmarked) [MurNAc],Inhibition of S. Typhimurium pathogenesis (C. elegans survival),[1],can inhibit S. Typhimurium pathogenesis; also recorded: sufficient to inhibit S. Typhimurium pathogenesis
same,Inhibition of S. Typhimurium pathogenesis (survival) in tol-1(nr2033) animals,[1],do not inhibit S. Typhimurium pathogenesis; also recorded: not protective
same,Protection of antibiotic-treatment mice from S. Typhimurium pathogenesis,[2],insufficient to protect antibiotic-treatment mice from S. Typhimurium pathogenesis
N-acetylmuramic acid-L-alanine [MurNAc-L-Ala],Inhibition of S. Typhimurium pathogenesis (C. elegans survival),[1],can inhibit S. Typhimurium pathogenesis; also recorded: sufficient to inhibit S. Typhimurium pathogenesis
same,Inhibition of S. Typhimurium pathogenesis (survival) in tol-1(nr2033) animals,[1],not protective
same,Inhibition of S. Typhimurium pathogenesis (survival) in tol-1(nr2033) animals,[1]; listed as MurNAc-Ala,do not inhibit S. Typhimurium pathogenesis
B1,Peptidoglycan cleavage product (ANTS visualization),[3],yielded a unique peptidoglycan cleavage product with similar mobility to MurNAc-L-Ala
same,E. coli cell lysis (culture optical density) on induced expression,[4],decrease in culture optical density
same,S. Typhimurium colonization of C. elegans (imaging and CFU),[5],does not affect S. Typhimurium colonization of C. elegans
same,Inhibition of S. Typhimurium pathogenesis (C. elegans survival),[1],inhibits S. Typhimurium pathogenesis
same,Inhibition of S. Typhimurium pathogenesis (C. elegans survival),[1]; listed as SagA-His6,sufficient to inhibit S. Typhimurium pathogenesis
same,Effect on growth rate of S. Typhimurium in culture,[6],no effect on the growth rate of S. Typhimurium
same,Effect on secretion of S. Typhimurium type III protein effectors (SPI-1) in culture,[7],does not affect SPI-1 secretion in culture
same,Effect on secretion of S. Typhimurium type III protein effectors (SPI-1) in culture,[7]; listed as recombinant SagA,no effect
same,Effect on growth rate of E. coli in culture,[8],no effect on the growth rate of E. coli
